This note sets out measurements from patent US20240270846A1 (published 2024).

Residue numbers refer to the chain shown, from its start. Names may count otherwise.

The target in the experiment is T1, CD3 epsilon homodimer protein (UniProt P07766 23-126).
T1 construct: also called CD3 (CD3 epsilon)
As to the kind of experiment: SPR, CD3e homodimer on chip.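 Further: surface plasmon resonance at 25 degrees C, antibodies flowed as analyte over CD3 epsilon homodimer amine-coupled to a CM4 chip, running buffer HBS-EP+.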

T1 sequence (P07766 23-126): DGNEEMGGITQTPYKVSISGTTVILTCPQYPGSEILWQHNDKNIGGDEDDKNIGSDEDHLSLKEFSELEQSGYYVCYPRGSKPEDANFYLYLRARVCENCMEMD

B1: GLS3000 S25T one-arm antibody (H chain CE115HA000) (antibody, human IgG1, kappa, L234A L235A, N297A, name in Kabat numbering)
heavy: QVQLVESGGGVVQPGRSLRLSCAASGFTFSNAWMHWVRQAPGKGLEWVAQIKAKSNNYATYYAESVKGRFTISRDDSKNSLYLQMNSLKTEDTAVYYCRYVHYGAYYGVDAWGQGTTVTVSSASTKGPSVFPLAPSSKSTSGGTAALGCLVKDYFPEPVTVSWNSGALTSGVHTFPAVLQSSGLYSLSSVVTVPSSSLGTQTYICNVNHKPSNTKVDKKVEPKSCDKTHTCPPCPAPEAAGGPSVFLFPPKPKDTLMISRTPEVTCVVVDVSHEDPEVKFNWYVDGVEVHNAKTKPREEQYASTYRVVSVLTVLHQDWLNGKEYKCKVSNKALPAPIEKTISKAKGQPREPQVYTLPPSRCELTKNQVSLSCAVKGFYPSDIAVEWESNGQPENNYKTTPPVLDSDGSFFLVSKLTVDKSRWQQGNVFSCSVMHEALHNHYTQKSLSLSPDYKDDDDK
chain: EPKSSDKTHTCPPCPAPELLGGPSVFLFPPKPKDTLMISRTPEVTCVVVDVSHEDPEVKFNWYVDGVEVHNAKTKPREEQYNSTYRVVSVLTVLHQDWLNGKEYKCKVSNKALPAPIEKTISKAKGQPREPQVCTLPPSRDELTKNQVSLWCLVKGFYPSDIAVEWESNGQPENNYKTTPPVLDSDGSFFLYSKLTVDKSRWQQGNVFSCSVMHEALHNRYTQKSLSLSP
light: DIVMTQSPLSLPVTPGEPASISCRTSQSLVHSNRNTYLHWYQQKPGQAPRLLIYKVSNRFSGVPDRFSGSGSGTDFTLKISRVEAEDVGVYYCGQGTQVPYTFGQGTKLEIKRTVAAPSVFIFPPSDEQLKSGTASVVCLLNNFYPREAKVQWKVDNALQSGNSQESVTEQDSKDSTYSLSSTLTLSKADYEKHKVYACEVTHQGLSSPVTKSFNRGEC
notes: one-arm antibody
Regarding B1, the “ratio of amounts bound (altered form / unaltered GLS3000 antibody)” value was determined as 0.83.

B2: GLS3000 S27aI one-arm antibody (H chain CE115HA000) (antibody, human IgG1, kappa, L234A L235A, N297A, name in Kabat numbering)
heavy: B1 heavy
chain: B1 chain
light: B1 light with T25S, S28I
notes: one-arm antibody
For B2, the “ratio of amounts bound (altered form / unaltered GLS3000 antibody)” value was 1.

B3: GLS3000 S27eG one-arm antibody (H chain CE115HA000) (antibody, human IgG1, kappa, L234A L235A, N297A, name in Kabat numbering)
heavy: B1 heavy
chain: B1 chain
light: B1 light with T25S, S32G
notes: one-arm antibody
Regarding B3, the “ratio of amounts bound (altered form / unaltered GLS3000 antibody)” value came to 1.04.

B4: GLS3000 S26E one-arm antibody (H chain CE115HA000) (antibody, human IgG1, kappa, L234A L235A, N297A, name in Kabat numbering)
heavy: B1 heavy
chain: B1 chain
light: B1 light with T25S, S26E
notes: one-arm antibody
Take B4: the “ratio of amounts bound (altered form / unaltered GLS3000 antibody)” value stood at 0.74.

B5: GLS3000 S27aP one-arm antibody (H chain CE115HA000) (antibody, human IgG1, kappa, L234A L235A, N297A, name in Kabat numbering)
heavy: B1 heavy
chain: B1 chain
light: B1 light with T25S, S28P
notes: one-arm antibody
Regarding B5, the “ratio of amounts bound (altered form / unaltered GLS3000 antibody)” value was determined as 0.99.

B6: GLS3000 S27aY one-arm antibody (H chain CE115HA000) (antibody, human IgG1, kappa, L234A L235A, N297A, name in Kabat numbering)
heavy: B1 heavy
chain: B1 chain
light: B1 light with T25S, S28Y
notes: one-arm antibody
In the case of B6, the “ratio of amounts bound (altered form / unaltered GLS3000 antibody)” value worked out at 1.1.

B7: GLS3000 S27eK one-arm antibody (H chain CE115HA000) (antibody, human IgG1, kappa, L234A L235A, N297A, name in Kabat numbering)
heavy: B1 heavy
chain: B1 chain
light: B1 light with T25S, S32K
notes: one-arm antibody
On to B7, for which the “ratio of amounts bound (altered form / unaltered GLS3000 antibody)” value was 1.59.

B8: GLS3000 S27aD one-arm antibody (H chain CE115HA000) (antibody, human IgG1, kappa, L234A L235A, N297A, name in Kabat numbering)
heavy: B1 heavy
chain: B1 chain
light: B1 light with T25S, S28D
notes: one-arm antibody
For the molecule B8, the “ratio of amounts bound (altered form / unaltered GLS3000 antibody)” value amounted to 0.79.

B9: GLS3000 S27aE one-arm antibody (H chain CE115HA000) (antibody, human IgG1, kappa, L234A L235A, N297A, name in Kabat numbering)
heavy: B1 heavy
chain: B1 chain
light: B1 light with T25S, S28E
notes: one-arm antibody
As for B9, the “ratio of amounts bound (altered form / unaltered GLS3000 antibody)” value stood at 0.81.

B10: GLS3000 S27eA one-arm antibody (H chain CE115HA000) (antibody, human IgG1, kappa, L234A L235A, N297A, name in Kabat numbering)
heavy: B1 heavy
chain: B1 chain
light: B1 light with T25S, S32A
notes: one-arm antibody
In the case of B10, the “ratio of amounts bound (altered form / unaltered GLS3000 antibody)” value amounted to 1.03.

B11: GLS3000 S27eI one-arm antibody (H chain CE115HA000) (antibody, human IgG1, kappa, L234A L235A, N297A, name in Kabat numbering)
heavy: B1 heavy
chain: B1 chain
light: B1 light with T25S, S32I
notes: one-arm antibody
As for B11, the “ratio of amounts bound (altered form / unaltered GLS3000 antibody)” value was 1.07.

B12: GLS3000 S26D one-arm antibody (H chain CE115HA000) (antibody, human IgG1, kappa, L234A L235A, N297A, name in Kabat numbering)
heavy: B1 heavy
chain: B1 chain
light: B1 light with T25S, S26D
notes: one-arm antibody
B12: the “ratio of amounts bound (altered form / unaltered GLS3000 antibody)” value came to 0.86.

B13: GLS3000 S27eD one-arm antibody (H chain CE115HA000) (antibody, human IgG1, kappa, L234A L235A, N297A, name in Kabat numbering)
heavy: B1 heavy
chain: B1 chain
light: B1 light with T25S, S32D
notes: one-arm antibody
B13: the “ratio of amounts bound (altered form / unaltered GLS3000 antibody)” value stood at 0.69.

B14: GLS3000 S26P one-arm antibody (H chain CE115HA000) (antibody, human IgG1, kappa, L234A L235A, N297A, name in Kabat numbering)
heavy: B1 heavy
chain: B1 chain
light: B1 light with T25S, S26P
notes: one-arm antibody
Regarding B14, the “ratio of amounts bound (altered form / unaltered GLS3000 antibody)” value is 0.78.

B15: GLS3000 S27aG one-arm antibody (H chain CE115HA000) (antibody, human IgG1, kappa, L234A L235A, N297A, name in Kabat numbering)
heavy: B1 heavy
chain: B1 chain
light: B1 light with T25S, S28G
notes: one-arm antibody
As to B15, the “ratio of amounts bound (altered form / unaltered GLS3000 antibody)” value is 1.03.

B16: GLS3000 S27eH one-arm antibody (H chain CE115HA000) (antibody, human IgG1, kappa, L234A L235A, N297A, name in Kabat numbering)
heavy: B1 heavy
chain: B1 chain
light: B1 light with T25S, S32H
notes: one-arm antibody
Consider B16, for which the “ratio of amounts bound (altered form / unaltered GLS3000 antibody)” value was 1.23.

B17: GLS3000 S27eL one-arm antibody (H chain CE115HA000) (antibody, human IgG1, kappa, L234A L235A, N297A, name in Kabat numbering)
heavy: B1 heavy
chain: B1 chain
light: B1 light with T25S, S32L
notes: one-arm antibody
Regarding B17, the “ratio of amounts bound (altered form / unaltered GLS3000 antibody)” value was 1.17.

B18: GLS3000 S52A one-arm antibody (H chain CE115HA000) (antibody, human IgG1, kappa, L234A L235A, N297A, name in Kabat numbering)
heavy: B1 heavy
chain: B1 chain
light: B1 light with T25S, S57A
notes: one-arm antibody
For the molecule B18, the “ratio of amounts bound (altered form / unaltered GLS3000 antibody)” value stood at 0.93.

B19: GLS3000 S27eY one-arm antibody (H chain CE115HA000) (antibody, human IgG1, kappa, L234A L235A, N297A, name in Kabat numbering)
heavy: B1 heavy
chain: B1 chain
light: B1 light with T25S, S32Y
notes: one-arm antibody
For the molecule B19, the “ratio of amounts bound (altered form / unaltered GLS3000 antibody)” value was 1.2.

B20: GLS3000 S27eN one-arm antibody (H chain CE115HA000) (antibody, human IgG1, kappa, L234A L235A, N297A, name in Kabat numbering)
heavy: B1 heavy
chain: B1 chain
light: B1 light with T25S, S32N
notes: one-arm antibody
B20: the “ratio of amounts bound (altered form / unaltered GLS3000 antibody)” value was 1.16.

B21: GLS3000 S27eQ one-arm antibody (H chain CE115HA000) (antibody, human IgG1, kappa, L234A L235A, N297A, name in Kabat numbering)
heavy: B1 heavy
chain: B1 chain
light: B1 light with T25S, S32Q
notes: one-arm antibody
B21: the “ratio of amounts bound (altered form / unaltered GLS3000 antibody)” value came out at 1.1.

B22: GLS3000 S27eV one-arm antibody (H chain CE115HA000) (antibody, human IgG1, kappa, L234A L235A, N297A, name in Kabat numbering)
heavy: B1 heavy
chain: B1 chain
light: B1 light with T25S, S32V
notes: one-arm antibody
For the molecule B22, the “ratio of amounts bound (altered form / unaltered GLS3000 antibody)” value is 1.08.

B23: GLS3000 S27eP one-arm antibody (H chain CE115HA000) (antibody, human IgG1, kappa, L234A L235A, N297A, name in Kabat numbering)
heavy: B1 heavy
chain: B1 chain
light: B1 light with T25S, S32P
notes: one-arm antibody
In the case of B23, the “ratio of amounts bound (altered form / unaltered GLS3000 antibody)” value was found to be 1.26.

B24: GLS3000 S27eW one-arm antibody (H chain CE115HA000) (antibody, human IgG1, kappa, L234A L235A, N297A, name in Kabat numbering)
heavy: B1 heavy
chain: B1 chain
light: B1 light with T25S, S32W
notes: one-arm antibody
Consider B24, for which the “ratio of amounts bound (altered form / unaltered GLS3000 antibody)” value stood at 1.55.

B25: GLS3000 S27eM one-arm antibody (H chain CE115HA000) (antibody, human IgG1, kappa, L234A L235A, N297A, name in Kabat numbering)
heavy: B1 heavy
chain: B1 chain
light: B1 light with T25S, S32M
notes: one-arm antibody
With B25, the “ratio of amounts bound (altered form / unaltered GLS3000 antibody)” value turned out to be 1.23.

B26: GLS3000 S25V one-arm antibody (H chain CE115HA000) (antibody, human IgG1, kappa, L234A L235A, N297A, name in Kabat numbering)
heavy: B1 heavy
chain: B1 chain
light: B1 light with T25V
notes: one-arm antibody
As for B26, the “ratio of amounts bound (altered form / unaltered GLS3000 antibody)” value stood at 0.73.

B27: GLS3000 S27eF one-arm antibody (H chain CE115HA000) (antibody, human IgG1, kappa, L234A L235A, N297A, name in Kabat numbering)
heavy: B1 heavy
chain: B1 chain
light: B1 light with T25S, S32F
notes: one-arm antibody
Regarding B27, the “ratio of amounts bound (altered form / unaltered GLS3000 antibody)” value was 1.32.

B28: GLS3000 S27aN one-arm antibody (H chain CE115HA000) (antibody, human IgG1, kappa, L234A L235A, N297A, name in Kabat numbering)
heavy: B1 heavy
chain: B1 chain
light: B1 light with T25S, S28N
notes: one-arm antibody
As for B28, the “ratio of amounts bound (altered form / unaltered GLS3000 antibody)” value was 1.1.

B29: GLS3000 S27eE one-arm antibody (H chain CE115HA000) (antibody, human IgG1, kappa, L234A L235A, N297A, name in Kabat numbering)
heavy: B1 heavy
chain: B1 chain
light: B1 light with T25S, S32E
notes: one-arm antibody
With B29, the “ratio of amounts bound (altered form / unaltered GLS3000 antibody)” value was determined as 0.76.

B30: GLS3000 S27eR one-arm antibody (H chain CE115HA000) (antibody, human IgG1, kappa, L234A L235A, N297A, name in Kabat numbering)
heavy: B1 heavy
chain: B1 chain
light: B1 light with T25S, S32R
notes: one-arm antibody
Regarding B30, the “ratio of amounts bound (altered form / unaltered GLS3000 antibody)” value came out at 1.58.

B31: GLS3000 S27eT one-arm antibody (H chain CE115HA000) (antibody, human IgG1, kappa, L234A L235A, N297A, name in Kabat numbering)
heavy: B1 heavy
chain: B1 chain
light: B1 light with T25S, S32T
notes: one-arm antibody
On to B31, for which the “ratio of amounts bound (altered form / unaltered GLS3000 antibody)” value came to 0.97.
